From patent publication US20100184636

Target: endogenous raptor (UniProt Q8N122)
Sequence (Q8N122 whole entry, looked up): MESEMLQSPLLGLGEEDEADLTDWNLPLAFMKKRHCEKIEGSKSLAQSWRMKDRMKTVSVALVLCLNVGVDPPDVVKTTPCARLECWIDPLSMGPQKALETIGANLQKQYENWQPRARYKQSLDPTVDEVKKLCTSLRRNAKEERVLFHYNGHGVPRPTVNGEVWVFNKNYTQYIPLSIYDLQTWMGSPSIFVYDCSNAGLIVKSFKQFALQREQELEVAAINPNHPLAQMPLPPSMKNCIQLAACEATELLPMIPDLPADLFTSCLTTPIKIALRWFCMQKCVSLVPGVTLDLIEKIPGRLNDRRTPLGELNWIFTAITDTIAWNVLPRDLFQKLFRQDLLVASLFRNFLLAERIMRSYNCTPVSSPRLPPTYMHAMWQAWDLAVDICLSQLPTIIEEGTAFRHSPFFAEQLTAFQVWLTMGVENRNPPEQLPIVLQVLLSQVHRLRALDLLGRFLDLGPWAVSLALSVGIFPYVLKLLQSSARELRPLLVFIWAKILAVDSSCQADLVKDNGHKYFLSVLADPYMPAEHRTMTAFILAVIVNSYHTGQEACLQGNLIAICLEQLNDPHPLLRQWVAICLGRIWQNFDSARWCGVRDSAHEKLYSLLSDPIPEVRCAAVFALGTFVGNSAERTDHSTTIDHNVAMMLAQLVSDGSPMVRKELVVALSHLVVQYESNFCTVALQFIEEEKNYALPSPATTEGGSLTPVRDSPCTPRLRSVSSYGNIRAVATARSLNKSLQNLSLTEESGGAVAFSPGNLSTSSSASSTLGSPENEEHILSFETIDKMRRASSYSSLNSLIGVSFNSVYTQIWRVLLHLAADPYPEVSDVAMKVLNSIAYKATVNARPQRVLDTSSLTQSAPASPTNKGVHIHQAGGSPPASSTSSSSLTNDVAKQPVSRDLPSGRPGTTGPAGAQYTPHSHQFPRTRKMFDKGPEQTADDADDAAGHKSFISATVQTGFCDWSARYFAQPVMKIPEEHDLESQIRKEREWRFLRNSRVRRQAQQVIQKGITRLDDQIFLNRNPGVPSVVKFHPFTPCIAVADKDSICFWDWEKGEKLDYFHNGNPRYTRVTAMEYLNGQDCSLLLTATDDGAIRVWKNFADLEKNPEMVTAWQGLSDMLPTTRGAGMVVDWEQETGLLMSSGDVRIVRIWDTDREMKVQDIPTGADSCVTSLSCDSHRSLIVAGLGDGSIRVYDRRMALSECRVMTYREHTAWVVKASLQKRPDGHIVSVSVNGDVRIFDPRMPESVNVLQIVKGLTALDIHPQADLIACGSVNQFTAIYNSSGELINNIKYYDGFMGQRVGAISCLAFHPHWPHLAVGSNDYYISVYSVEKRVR

phospholipase D2, wild type (PLD2^wt)
exogenous PA-dependent phosphorylation of S6K1 (add-back): the exogenous PA-dependent phosphorylation of S6K1 was rescued by PLD2^wt and PLD2^K758R, but not by PLD2^F265A and PLD2^E266R
